Reference: the nanobody polyreactivity screen of Harvey et al. (2022)

Test: yeast display, Sf9 membrane polyspecificity reagent, FACS + sequencing; frameworks hold sequencing errors
Method in brief: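 Genes from sorted yeast were amplified by colony PCR, read by MiSeq 2 × 250 sequencing and filtered on CDR length. These cells carried a synthetic nanobody library in Saccharomyces cerevisiae BJ5465 and were sorted by FACS into low and high (top ~1%) gates on anti-HA and streptavidin fluorescence. Polyreactivity is labelled according to the gate of origin.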
For “QVQLVESGGGLVQAGGILRLSCAASGLSFSWYDMGWYRQAPGKERELVAAITTDGDDTYYADSVKGRFTISRDNAKNTVYLQMNSLKPEDTAVYYCAADSELAIRYPDRDYDSWGQGTQVTVSS”, the “polyreactivity (PSR sort gate)” value was “low polyreactivity”. With “QVQLVESGGGLVQAGASLRLSCAASGRTFGGYAMGWYRQAPGKERQLVAAISSSGTGTSYADSVKGRFTISRDNAKNTVYFEMNSLKPEDTAVYYCAARSSRTVLSIQDDDYWGQGTQVTVSS” the “polyreactivity (PSR sort gate)” value was “low polyreactivity”. With “QVQLVESGGGLVQAGGSLRLSCAASGFIFQPYAMGWYRQAPVKERELVAAITSRGGRTYYADSVKGRFTISRDNAKNTVYLQMNSLKPEDTAVYYCNADIYASEYYYWGQGTQVTVSS” the “polyreactivity (PSR sort gate)” value was “low polyreactivity”. For “QVQLVESGGGLVQAGGSLRLSCAASGRIFPAYVMGWYRQAPGKERQLVATIDNGGGTYFADSVKGRFTISRDNAKNTVYLQMNRLKPVETAVYYCARDRHVRWGLNMDYWGQGTQVTVSS”, the “polyreactivity (PSR sort gate)” value was “low polyreactivity”. In the case of “QVQLVESGGGLVQAGGSLRLSCAASGFTFKTYAMGSYRPAPGKEREFVAAISSRGGSTYYSDSVKGRFTISRDNAKNTVYLQMHSLKPEDTAVYYCATATRPRDRYSRYGYWGQGTQVTVSS”, the “polyreactivity (PSR sort gate)” value was “high polyreactivity”. With “QVQLVESVGGLVQAGGSLRLSCAASGRIFGPYVMGWYRQAPGKERELVAAISTSGTSTYYADSVKGRFTISRDNAKNTDYLPMNSLKPEDTAVYYCAIRSGARHRLMDYWGQGTQVTVSS” the “polyreactivity (PSR sort gate)” value was “low polyreactivity”. For “QVKLVESGGGLVQAGGSLRLSCAASGIIFYSYAIGGYRPAPGTERELVAAISSTGSTYYADSVKGRFTISRDNAKNTVYLQMNSLKPEDTAVYYCAATFYPYQVHHYYYWGQGTQVTVSS”, the “polyreactivity (PSR sort gate)” value was “low polyreactivity”. In the case of “QVHLVESGGGLVQAGGSLRVSCAASGSIFPDNAMGWYTQAPGKERELVAAITFSGGRTYYADSVKGRFTISRDNAKNTVYLQMNSQKPEDTAVYYCATAKGVKLYRYPDYSGYYPYDYWGQGTQVTVSS”, the “polyreactivity (PSR sort gate)” value was “high polyreactivity”. With “QVQLVESGGGLFHAGGRLRLSCAASGRIFGRYDMGWSIQAPGKERELVASISTGGGGTYYADSVKGRFTISRDNAKNTVYLQMNSLKPEDTAVYYCAKAWRGFWTKYDYWGQGTQVTVSS” the “polyreactivity (PSR sort gate)” value was “low polyreactivity”. With “QVQLVESGGGLVQAGGSLRLTCAASGRTFGHYAMGWYRQAPGKERELVAAISQRGGGTYYADSVKGRFTISRDNAKNTVYLQMNSLKPEDTAVYYCAADFGNSPYIKDYYYWGQGTQVTVSS” the “polyreactivity (PSR sort gate)” value was “low polyreactivity”. In the case of “QVQLVESGGCLVQAGGSLRLSSAASGITFYLYAMGWYRKAPGKVRELVATISRSGGSTYADSVKGRFTISRDNAKNTVYLQMHSMKPEDTAVYYCNADLLSTGFIAYDYWGQGTQVTVSS”, the “polyreactivity (PSR sort gate)” value was “low polyreactivity”. With “QVQLVETGGGLVQAGGSLRLSCAASGRIFGHYVMGWYRPAPGTERELVAAITWRGGSTYYADSVKGRFTISRDYAKNTVYLQMNSLKPEDTAVYDCNASPSEVRRRYDYWGQGTQVTVSS” the “polyreactivity (PSR sort gate)” value was “high polyreactivity”. For “QVQLVESGGGLVQAGGSLRLSCAASGRTFYIYAMGWYRQAPGTERELVAAITYGGGRTFYADSVKGRFTISRDKAKNTVYLQMNSLKPEDTAVYYCAADGRTLGRRYYYWGLGTQVTVSS”, the “polyreactivity (PSR sort gate)” value was “high polyreactivity”. With “QVQLVESGGGLVQAGGSLRLSCAASGRIFFYYAMGWYRQAPGKERELVATITASGDSTYYADSVKGRFTISRDNAMDTVYLQMNSLKPEDTAVYYCAADDGDYYEVDYWGQGTQVTVSS” the “polyreactivity (PSR sort gate)” value was “low polyreactivity”. In the case of “QVQLVESGGGLVQAGGSRRLSCAASGSIFYTYLMGWYRPAPGTDRELVAAISASGVRTYYADSVKGRFTISRDNAKITVYLEMNSLKPEDTAVYYCAADRQRADYYWGQGRQVTVSS”, the “polyreactivity (PSR sort gate)” value was “high polyreactivity”. For “QVQLVESGGGLVQAGGSLRLSCAASGRTFGRYVMGWYRQAPGKERELVAAITSSSSSTYADSVKGRFTISRDNAKNTVHLEMNSLKPEDTAVYYCNKRFPSRHRPEYDYWGQGTQVTVSS”, the “polyreactivity (PSR sort gate)” value was “high polyreactivity”. With “QVQLVESGGGLVQAGGSLRLSCAASGFTLLWNAMGWYRQAPGKERELVAAINKSGGSTYADSVKGRFTISRDNAKNTVYLQMNSLKPEDTAVYYCAAEVDYSYWPEYARKYYYWGQGTQVTVSS” the “polyreactivity (PSR sort gate)” value was “low polyreactivity”. In the case of “QVQLVESGGGLLQAGGSLRLSCAASGSIFLYYAMGWYRQAPGKERELVAGISRGGGTTYYADSVKGRFTISRDNAKNTVYLQMNSLKPEDTAFYYCATVFWRSKHEYWGQGTQVTVSW”, the “polyreactivity (PSR sort gate)” value was “high polyreactivity”. With “QVQLVESGGGLVQAGASLRLSCAASGSTFGSYTMGWYRQAPWKERELVAAINWTGGNTYYADSVKGRFTISRDYAKNTVYLQMNSLKPEDTAVYYCAAAFYIYGVEGDYWGQGTQVTVSS” the “polyreactivity (PSR sort gate)” value was “low polyreactivity”. For “QVQLVESGGGLVQAGGSLRLSCAASGRTFGSYVMGWYRQAPGKERELVATISRRGGTTYYADSVKGRYTISRDNAKNTVYLQMNSLKPEDTAVYYCAAKYFGTRYDYWGQGTQVTVSS”, the “polyreactivity (PSR sort gate)” value was “high polyreactivity”. With “QVQLVESVGGLVQAGGSLRLSCAASGSTFAFYDMGWYRQAPGKERELVAAISQSDGDTYYADSVKGRFTISRDNAKNTVYLQMNSLKPEDTAVYYCAAETAHTPEYERGSDYWGQGTQVTVSS” the “polyreactivity (PSR sort gate)” value was “low polyreactivity”. With “QVQLVESGGGLVQAGGSLRLSCAASGSTFKGYSMGWYRQAPGKERALVAAISRSGTRTYYADSVKGRFTISRDNAKNTVYLHMTILKPEVTAVYYCNKVTGFIAHDNEKGRDYWGQGTQVTVSS” the “polyreactivity (PSR sort gate)” value was “low polyreactivity”. For “QVQLVESGGGLVQAGGSLRLSCAASGSTFKVYAMGWYRQAPGKESELVATISKSGSTYADSVKGRFTISRDNAKNTVYLQMNSLKPEDTAVYYCARVKYSGVVYKYDYWGQGTQVTVSS”, the “polyreactivity (PSR sort gate)” value was “high polyreactivity”. In the case of “QVQLVESGGGLVQAGGSLRLSCAASGFTFGHYAMGWDRQAPGKERELVAAISSGDRTYYADSVKGRFTISRDNAKNTVYLQMNSLKPEDTAVYSCNAVYYSWAQSARFDYWGQGTQVTVSS”, the “polyreactivity (PSR sort gate)” value was “low polyreactivity”. In the case of “QVQLEESGGGLVQAGGSLRLSCAASGYTFRGNARGWYRQAPGKERELVASISYSGGTTYADSVKGRFTISRDNAKNTVYLHRNSLKQEDTAVYYCNAAGFYYLYSHRQYEFWGQGTQLTVSS”, the “polyreactivity (PSR sort gate)” value was “low polyreactivity”. For “QVQLVESGGGLVQAGGSLRLSCDASGLIFITYAMRWYRQAPGKERELVATITLRGGSTYYADSVKGRFTISRDNAKNTVYLQMNSLKPEDTAVYYCAAEVGYWGRSRGYPSDDYDYCGQGTQVTVSS”, the “polyreactivity (PSR sort gate)” value was “low polyreactivity”. With “QVQLVESGGGLVQEGGSLRLSCAASGRIFVGNAMGWYRQAPGKERELVASMTRGRRTNYADSVKGRFTISRDNAKNTVFFQMNSLKPVDTAVYYCNAPGVTRAYLVGYDYWGQGTQVTVSS” the “polyreactivity (PSR sort gate)” value was “low polyreactivity”. In the case of “QVQLVESGGGLVQAGGSLRLSCAASGFTFIYYAMGWYRQARGKERELVAAISRGDSTYYADSVKGRFTISRDNAKNTVYLQMISLKPEDTAVYYCAAASHVRRDHGYWGEGTQVTVSS”, the “polyreactivity (PSR sort gate)” value was “low polyreactivity”. With “QVQLVESGGGLVQAGGSLRLSCAASGLTFKVYAMGWYRQAPGKERELVAAISWSGGSTYYADSVKGRFTISRDNAKNTVYLQMNSLKPEDTAVYYCAVEPSYYVVFFPYEYWGQGTQVTVSS” the “polyreactivity (PSR sort gate)” value was “low polyreactivity”. With “QVQLVESGGGLVQAGGSLRLSCAASGSISTFYAMGWYRQAPGKEREFVAAISTRDGTTRYADSVKGRFTISRDNAKNTVYLQMNSLKPEDTAVYYCAAKGGGVWLYARIYSDYYWGQGTQVTVSS” the “polyreactivity (PSR sort gate)” value was “low polyreactivity”. In the case of “QVQLVESGGGLVQAGGSLRLSCAASGITFPYYAMGWYRQAPGKERELVAAITTGGGSTYYADSVKGRFTISRDNAKNTVYLQMNSLKPEDTAVYYCAAANLRARTGPRRGYEYWGQGTQVTVSS”, the “polyreactivity (PSR sort gate)” value was “high polyreactivity”.
